Assay results published in publication PMC10747188.

Key:
[1] = biological target: T1, MFSD2a, endogenous on human cell lines (human (endogenous in HEK293T, Jurkat, HUVEC, U87-MG)) (UniProt Q8NA29)
T1 sequence: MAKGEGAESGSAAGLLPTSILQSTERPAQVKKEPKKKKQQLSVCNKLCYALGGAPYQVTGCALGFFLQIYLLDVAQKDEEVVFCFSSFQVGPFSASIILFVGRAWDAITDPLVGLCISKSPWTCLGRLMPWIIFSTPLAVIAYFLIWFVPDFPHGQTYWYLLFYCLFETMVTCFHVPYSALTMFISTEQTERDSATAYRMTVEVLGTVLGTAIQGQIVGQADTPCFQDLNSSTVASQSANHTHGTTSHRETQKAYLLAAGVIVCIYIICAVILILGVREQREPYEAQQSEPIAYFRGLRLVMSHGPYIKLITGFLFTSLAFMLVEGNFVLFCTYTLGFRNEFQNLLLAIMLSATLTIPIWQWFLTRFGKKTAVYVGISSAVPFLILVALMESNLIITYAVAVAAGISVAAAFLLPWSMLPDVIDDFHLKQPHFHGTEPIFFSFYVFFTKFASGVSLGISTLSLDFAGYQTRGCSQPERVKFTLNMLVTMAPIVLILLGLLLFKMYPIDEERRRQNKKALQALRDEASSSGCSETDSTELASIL

[2] = biological target: T1, MFSD2a, endogenous on human cell lines (human (endogenous in HEK293T, Jurkat, HUVEC, U87-MG)); remark: listed apart in the source
[3] = biological target: simian MFSD2a, endogenous on Cos-7 cells (simian (endogenous in Cos-7))
[4] = biological target: T2, MFSD2a N217Q-V5, expressed in HeLa cells (UniProt Q8NA29)
T2 sequence: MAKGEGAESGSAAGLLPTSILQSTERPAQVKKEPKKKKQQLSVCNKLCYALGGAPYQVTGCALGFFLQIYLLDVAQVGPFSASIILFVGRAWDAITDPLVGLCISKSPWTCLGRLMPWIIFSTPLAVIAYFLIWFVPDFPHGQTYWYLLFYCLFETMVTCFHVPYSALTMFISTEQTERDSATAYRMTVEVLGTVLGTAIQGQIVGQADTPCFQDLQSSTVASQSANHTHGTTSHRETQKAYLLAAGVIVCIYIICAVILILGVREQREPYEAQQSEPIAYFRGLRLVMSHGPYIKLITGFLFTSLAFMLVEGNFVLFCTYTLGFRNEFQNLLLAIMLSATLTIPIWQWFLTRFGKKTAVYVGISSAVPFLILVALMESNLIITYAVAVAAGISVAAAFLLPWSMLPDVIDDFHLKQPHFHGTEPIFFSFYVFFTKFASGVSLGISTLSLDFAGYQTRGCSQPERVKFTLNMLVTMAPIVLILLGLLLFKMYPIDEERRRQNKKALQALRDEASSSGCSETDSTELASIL

[5] = biological target: T3, MFSD2a N227Q-V5, expressed in HeLa cells (UniProt Q8NA29)
T3 sequence: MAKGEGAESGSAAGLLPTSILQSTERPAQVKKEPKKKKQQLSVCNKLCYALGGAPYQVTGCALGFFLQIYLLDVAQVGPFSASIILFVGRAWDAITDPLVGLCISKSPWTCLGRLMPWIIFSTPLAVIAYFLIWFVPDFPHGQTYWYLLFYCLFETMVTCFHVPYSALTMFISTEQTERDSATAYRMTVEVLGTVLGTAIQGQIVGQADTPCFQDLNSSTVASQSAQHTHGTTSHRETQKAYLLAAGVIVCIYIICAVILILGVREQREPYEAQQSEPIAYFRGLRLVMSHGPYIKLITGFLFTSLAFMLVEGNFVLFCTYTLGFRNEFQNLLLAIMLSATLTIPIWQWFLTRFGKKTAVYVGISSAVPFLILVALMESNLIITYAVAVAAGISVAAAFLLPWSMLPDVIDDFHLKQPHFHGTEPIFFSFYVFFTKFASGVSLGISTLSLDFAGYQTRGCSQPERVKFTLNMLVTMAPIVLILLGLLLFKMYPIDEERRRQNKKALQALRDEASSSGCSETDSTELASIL

[6] = biological target: T1, MFSD2a, endogenous on human cell lines (human (endogenous in HEK293T, Jurkat, HUVEC, U87-MG)); remark: listed apart in the source
[7] = anti-V5 Western blot of transfected cells; settings: glycan lost; control: wild-type MFSD2a
[8] = anti-V5 immunofluorescence, confocal, Cos-7 cells; settings: glycan lost; control: wild-type MFSD2a
[9] = luciferase infection assay in transfected HeLa cells; settings: glycan lost; control: wild-type MFSD2a

B1: Syncytin-2, expressed in HEK293T cells (cell fusion assay) (natural protein)
chain: AYRHPDFPLLEKAQQLLQSTGSPYSTNCWLCTSSSTETPGTAYPASPREWTSIEAELHISYRWDPNLKGLMRPANSLLSTVKQDFPDIRQKPPIFGPIFTNINLMGIAPICVMAKRKNGTNVGTLPSTVCNVTFTVDSNQQTYQTYTHNQFRHQPRFPKPPNITFPQGTLLDKSSRFCQGRPSSCSTRNFWFRPADYNQCLQISNLSSTAEWVLLDQTRNSLFWENKTKGANQSQTPCVQVLAGMTIATSYLGISAVSEFFGTSLTPLFHFHISTCLKTQGAFYICGQSIHQCLPSNWTGTCTIGYVTPDIFIAPGNLSLPIPIYGNSPLPRVRRAIHFIPLLAGLGILAGTGTGIAGITKASLTYSQLSKEIANNIDTMAKALTTMQEQIDSLAAVVLQNRRGLDMLTAAQGGICLALDEKCCFWVNQSGKVQDNIRQLLNQASSLRERATQGWLNWEGTWKWFSWVLPLTGPLVSLLLLLLFGPCLLNLITQFVSSRLQAIKLQTNLSAGRHPRNIQESPF
cellular fusion index of Syn-2-transfected HEK293T cells with 4 µM recombinant Gal-1 for 24 h (8.56% +/− 0.6 with PBS; 5.76% +/− 0.22 with Gal-1 and 50 mM lactose) [1]: 17.5%

B2: Syncytin-2 (Flag-tagged), on pseudotyped NL4.3 virions (natural protein)
chain: AYRHPDFPLLEKAQQLLQSTGSPYSTNCWLCTSSSTETPGTAYPASPREWTSIEAELHISYRWDPNLKGLMRPANSLLSTVKQDFPDIRQKPPIFGPIFTNINLMGIAPICVMAKRKNGTNVGTLPSTVCNVTFTVDSNQQTYQTYTHNQFRHQPRFPKPPNITFPQGTLLDKSSRFCQGRPSSCSTRNFWFRPADYNQCLQISNLSSTAEWVLLDQTRNSLFWENKTKGANQSQTPCVQVLAGMTIATSYLGISAVSEFFGTSLTPLFHFHISTCLKTQGAFYICGQSIHQCLPSNWTGTCTIGYVTPDIFIAPGNLSLPIPIYGNSPLPRVRRAIHFIPLLAGLGILAGTGTGIAGITKASLTYSQLSKEIANNIDTMAKALTTMQEQIDSLAAVVLQNRRGLDMLTAAQGGICLALDEKCCFWVNQSGKVQDNIRQLLNQASSLRERATQGWLNWEGTWKWFSWVLPLTGPLVSLLLLLLFGPCLLNLITQFVSSRLQAIKLQTNLSAGRHPRNIQESPF
fold-change in infectivity (luciferase) of Syn-2-pseudotyped viruses on HEK293T cells with 4 µM Gal-1 against virus only; abolished by 50 mM lactose [2]: 5.51 fold | fold-change in infectivity (luciferase) of Syn-2-pseudotyped viruses on Cos-7 cells with 4 µM Gal-1 against virus only; abolished by 50 mM lactose [3]: 6.93 fold | fold-change in infectivity (luciferase) of Syn-2-pseudotyped viruses on N217Q-MFSD2a-transfected HeLa cells with Gal-1 against control; counteracted by lactose [4]: 10.8 fold | fold-change in infectivity (luciferase) of Syn-2-pseudotyped viruses on N227Q-MFSD2a-transfected HeLa cells with Gal-1 against control; counteracted by lactose [5]: 10.2 fold | fold-change in infectivity (luciferase) of Syn-2-pseudotyped viruses on HUVEC cells with 4 µM Gal-1 against virus only; inhibited by 50 mM lactose [6]: 33.4 fold | fold-change in infectivity (luciferase) of Syn-2-pseudotyped viruses on Jurkat cells with 4 µM Gal-1 against virus only; inhibited by 50 mM lactose [6]: 14.1 fold | fold-change in infectivity (luciferase) of Syn-2-pseudotyped viruses on U87-MG cells with 4 µM Gal-1 against virus only; inhibited by 50 mM lactose [6]: 6.76 fold

B3: MFSD2a: N217Q (protein)
parent chain: MAKGEGAESGSAAGLLPTSILQSTERPAQVKKEPKKKKQQLSVCNKLCYALGGAPYQVTGCALGFFLQIYLLDVAQVGPFSASIILFVGRAWDAITDPLVGLCISKSPWTCLGRLMPWIIFSTPLAVIAYFLIWFVPDFPHGQTYWYLLFYCLFETMVTCFHVPYSALTMFISTEQTERDSATAYRMTVEVLGTVLGTAIQGQIVGQADTPCFQDLNSSTVASQSANHTHGTTSHRETQKAYLLAAGVIVCIYIICAVILILGVREQREPYEAQQSEPIAYFRGLRLVMSHGPYIKLITGFLFTSLAFMLVEGNFVLFCTYTLGFRNEFQNLLLAIMLSATLTIPIWQWFLTRFGKKTAVYVGISSAVPFLILVALMESNLIITYAVAVAAGISVAAAFLLPWSMLPDVIDDFHLKQPHFHGTEPIFFSFYVFFTKFASGVSLGISTLSLDFAGYQTRGCSQPERVKFTLNMLVTMAPIVLILLGLLLFKMYPIDEERRRQNKKALQALRDEASSSGCSETDSTELASIL
expression_or_secretion [7]: no change | localisation_or_trafficking [8]: no change | other: galectin-1 enhancement of Syn-2 pseudovirus infectivity, fold_change [9]: no change, 10.8-fold +/− 3.96 vs 9.3 +/− 1.52

B4: MFSD2a: N227Q (protein)
parent chain: MAKGEGAESGSAAGLLPTSILQSTERPAQVKKEPKKKKQQLSVCNKLCYALGGAPYQVTGCALGFFLQIYLLDVAQVGPFSASIILFVGRAWDAITDPLVGLCISKSPWTCLGRLMPWIIFSTPLAVIAYFLIWFVPDFPHGQTYWYLLFYCLFETMVTCFHVPYSALTMFISTEQTERDSATAYRMTVEVLGTVLGTAIQGQIVGQADTPCFQDLNSSTVASQSANHTHGTTSHRETQKAYLLAAGVIVCIYIICAVILILGVREQREPYEAQQSEPIAYFRGLRLVMSHGPYIKLITGFLFTSLAFMLVEGNFVLFCTYTLGFRNEFQNLLLAIMLSATLTIPIWQWFLTRFGKKTAVYVGISSAVPFLILVALMESNLIITYAVAVAAGISVAAAFLLPWSMLPDVIDDFHLKQPHFHGTEPIFFSFYVFFTKFASGVSLGISTLSLDFAGYQTRGCSQPERVKFTLNMLVTMAPIVLILLGLLLFKMYPIDEERRRQNKKALQALRDEASSSGCSETDSTELASIL
expression_or_secretion [7]: no change | localisation_or_trafficking [8]: no change | other: galectin-1 enhancement of Syn-2 pseudovirus infectivity, fold_change [9]: no change, 10.2-fold +/− 4.75 vs 9.3 +/− 1.52

B5: MFSD2a: double mutant (protein)
parent chain: MAKGEGAESGSAAGLLPTSILQSTERPAQVKKEPKKKKQQLSVCNKLCYALGGAPYQVTGCALGFFLQIYLLDVAQVGPFSASIILFVGRAWDAITDPLVGLCISKSPWTCLGRLMPWIIFSTPLAVIAYFLIWFVPDFPHGQTYWYLLFYCLFETMVTCFHVPYSALTMFISTEQTERDSATAYRMTVEVLGTVLGTAIQGQIVGQADTPCFQDLNSSTVASQSANHTHGTTSHRETQKAYLLAAGVIVCIYIICAVILILGVREQREPYEAQQSEPIAYFRGLRLVMSHGPYIKLITGFLFTSLAFMLVEGNFVLFCTYTLGFRNEFQNLLLAIMLSATLTIPIWQWFLTRFGKKTAVYVGISSAVPFLILVALMESNLIITYAVAVAAGISVAAAFLLPWSMLPDVIDDFHLKQPHFHGTEPIFFSFYVFFTKFASGVSLGISTLSLDFAGYQTRGCSQPERVKFTLNMLVTMAPIVLILLGLLLFKMYPIDEERRRQNKKALQALRDEASSSGCSETDSTELASIL
expression_or_secretion [7]: decreases
